Measurements: publication PMC3461310 (2013)
Values joined by “and” are separate entries in the source; they are usually repeats but may differ in a detail not shown here. Equal entries are not always repeated. Each block holds one binder with its values, some of them ahead of it.

Columns and labels:
thrombin ([4′F]FPR-T) [1] = target: thrombin ([4′F]FPR-T) (Homo sapiens, UniProt P00734, active site labeled with 4′-fluorescein-FPR, heparin (T·(Hep)2 complex)); assay: fluorescence equilibrium binding
thrombin ([6F]FFR-T) [2] = target: thrombin ([6F]FFR-T) (Homo sapiens, UniProt P00734, active site labeled with 6-fluorescein-FFR, heparin (T·Hep complex)); assay: fluorescence equilibrium binding
thrombin ([6F]FFR-T) [3] = target: thrombin ([6F]FFR-T) (Homo sapiens, UniProt P00734, active site labeled with 6-fluorescein-FFR, heparin (T·(Hep)2 complex)); assay: fluorescence equilibrium binding
thrombin ([4′F]FPR-T) [4] = target: thrombin ([4′F]FPR-T) (Homo sapiens, UniProt P00734, active site labeled with 4′-fluorescein-FPR, heparin (T·Hep complex)); assay: fluorescence equilibrium binding
thrombin = thrombin (Homo sapiens, UniProt P00734, heparin (1 and 50 μM)); assay: inactivation kinetics with Hir-
thrombin ([4′F]FPR-T) [5] = target: thrombin ([4′F]FPR-T) (Homo sapiens, UniProt P00734, active site labeled with 4′-fluorescein-FPR); assay: fluorescence equilibrium binding

Kd (thrombin ([4′F]FPR-T) [1]): 600 nM
Kd (thrombin ([6F]FFR-T) [2]): 300 nM and 150 nM
Kd (thrombin ([6F]FFR-T) [3]): 140 nM
Kd (thrombin ([4′F]FPR-T) [4]): 200 nM and 230 nM
Kd (thrombin): 40 nM
B1: heparin cofactor II (protein)
chain: GSKGPLDQLEKGGETAQSADPQWEQLNNKNLSMPLLPADFHKENTVTNDWIPEGEEDDDYLDLEKIFSEDDDYIDIVDSLSVSPTDSDVSAGNILQLFHGKSRIQRLNILNAKFAFNLYRVLKDQVNTFDNIFIAPVGISTAMGMISLGLKGETHEQVHSILHFKDFVNASSKYEITTIHNLFRKLTHRLFRRNFGYTLRSVNDLYIQKQFPILLDFKTKVREYYFAEAQIADFSDPAFISKTNNHIMKLTKGLIKDALENIDPATQMMILNCIYFKGSWVNKFPVEMTHNHNFRLNEREVVKVSMMQTKGNFLAANDQELDCDILQLEYVGGISMLIVVPHKMSGMKTLEAQLTPRVVERWQKSMTNRTREVLLPKFKLEKNYNLVESLKLMGIRMLFDKNGNMAGISDQRIAIDLFKHQGTITVNEEGTQATTVTTVGFMPLSTQVRFTVDRPFLFLIYEHRTSCLLFMGRVANPSRS

Kd (thrombin ([4′F]FPR-T) [5]): 5000 nM
B2: prothrombin fragment 2 fragment 2 (protein)
chain: SEGSSVNLSPPLEQCVPDRGQQYQGRLAVTTHGLPCLAWASAQAKALSKHQDFNSAVQLVENFCRNPDGDEEGVWCYVAGKPGDFGYCDLNYCEEAVEEETGDGLDEDSDRAIEGRTATSEYQTFFNPR
